Paper PMC12830989, “Subcellular glycan-mannose receptor binding kinetics correlate with myeloid cell function” (Nature Communications, 2025)
sCy5 = sulfo-Cy5

Biological target: T1, mannose receptor (MR) on CHO-MR cells (Mus musculus, UniProt Q61830)
T1 construct: expressed in transfected cells; host or cells: CHO (CHO-MR overexpression line, gift of Luisa Martinez-Pomares)
T1 sequence (Q61830 20-1456): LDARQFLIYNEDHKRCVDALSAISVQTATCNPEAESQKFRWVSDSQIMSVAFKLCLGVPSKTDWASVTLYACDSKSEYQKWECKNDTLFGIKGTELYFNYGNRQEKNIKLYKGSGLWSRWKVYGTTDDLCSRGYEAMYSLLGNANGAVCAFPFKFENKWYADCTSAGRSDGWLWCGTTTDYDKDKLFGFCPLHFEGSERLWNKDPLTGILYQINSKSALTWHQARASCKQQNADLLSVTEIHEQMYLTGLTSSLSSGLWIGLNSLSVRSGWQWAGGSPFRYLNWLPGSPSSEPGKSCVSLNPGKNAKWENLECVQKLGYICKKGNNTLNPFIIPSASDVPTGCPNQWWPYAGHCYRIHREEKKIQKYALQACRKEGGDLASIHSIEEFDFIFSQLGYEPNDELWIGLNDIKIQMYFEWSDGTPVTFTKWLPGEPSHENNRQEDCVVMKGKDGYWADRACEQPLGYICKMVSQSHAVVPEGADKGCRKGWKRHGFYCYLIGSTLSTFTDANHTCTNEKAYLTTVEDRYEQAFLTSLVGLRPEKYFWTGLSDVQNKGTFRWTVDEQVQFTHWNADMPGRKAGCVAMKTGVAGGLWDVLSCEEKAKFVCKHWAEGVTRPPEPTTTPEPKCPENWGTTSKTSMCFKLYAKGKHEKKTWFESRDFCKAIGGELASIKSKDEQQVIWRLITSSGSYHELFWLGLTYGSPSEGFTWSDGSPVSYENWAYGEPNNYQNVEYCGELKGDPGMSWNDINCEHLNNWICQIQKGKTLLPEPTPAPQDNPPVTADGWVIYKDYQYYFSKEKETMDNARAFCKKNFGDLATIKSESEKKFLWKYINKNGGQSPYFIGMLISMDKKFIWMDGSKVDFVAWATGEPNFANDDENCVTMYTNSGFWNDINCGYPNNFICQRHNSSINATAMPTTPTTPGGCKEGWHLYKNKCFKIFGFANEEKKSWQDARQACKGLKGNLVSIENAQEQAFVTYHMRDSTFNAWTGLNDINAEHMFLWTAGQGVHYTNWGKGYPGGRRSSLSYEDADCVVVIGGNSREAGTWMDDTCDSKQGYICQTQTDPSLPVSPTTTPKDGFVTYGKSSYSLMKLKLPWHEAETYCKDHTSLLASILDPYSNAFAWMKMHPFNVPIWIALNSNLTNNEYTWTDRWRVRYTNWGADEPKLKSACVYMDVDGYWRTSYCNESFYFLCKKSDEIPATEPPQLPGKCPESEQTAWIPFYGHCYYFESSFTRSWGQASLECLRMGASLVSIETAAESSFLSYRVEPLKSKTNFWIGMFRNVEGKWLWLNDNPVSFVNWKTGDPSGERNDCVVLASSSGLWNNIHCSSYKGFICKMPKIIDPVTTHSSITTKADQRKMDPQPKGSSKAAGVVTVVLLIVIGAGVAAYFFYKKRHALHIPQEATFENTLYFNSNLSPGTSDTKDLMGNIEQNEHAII
Test: Glyco-PAINT-APP single-molecule glycan binding on CHO-MR cells
Details: Suppl. Fig 9, glycan SLP, median
Experimental: Single molecule imaging was performed on a Nikon Ti2 N-STORM system equipped with TIRF module, Z piezo element, perfect focus system for axial drift correction and an OkoLab incubator with temperature and CO2 controller (37 °C and 5% CO2) for live-cell imaging. Recordings were acquired using the 647 nm excitation laser (160 mW, 1.9 kW/cm^2). Upon laser excitation, fluorescence was collected by a 100x 1.49 NA oil-immersion objective, passed through a quad-band dichroic mirror (97335 Nikon), and detected by a Hamamatsu ORCA Flash 4.0 CMOS camera with 160 nm pixel size. The signal was collected using the following settings: 512 × 512 pixel region, no binning, pixel depth 16-bit, exposure time 50 ms, live-cell observation and 2D-STORM (lens out), zoom 1x, lens x0.4, and for live-cell observation at 37 °C, the correction collar was set to position 8160.
5 x 10^4 CHO-MR or 1 x 10^5 WT, MR^−/− BMDC or BMDM were seeded in 8-well glass-bottomed microscopy slides (Ibidi, 80827) in complete medium. After equilibration in the microscope incubator, fluorescent glycan was added at 5 nM for CHO-MR and 10 nM for BMDC or BMDM experiments. Then, cells were brought into focus using brightfield illumination and 2000 frames (at 50 ms intervals) were recorded within a single field-of-view at 40–60% of maximum 647 nm laser power using TIRF illumination. For indicated experiments, Cytochalasin D (Focus Biomolecules) was added to a final concentration of 10 µM for 30 min prior to acquisition.
Processing of recordings using Glyco-PAINT-APP was performed as described in a step-by-step procedure in the Supplementary Software Manual in the Supplementary Information and accompanying Supplementary Videos 1 and 2. For the TrackMate processing, a batch file (Experiment Info.csv) containing the experiment metadata and tracking parameters was created. Threshold values were set to 5, 10 or 15 such that no more than 1.500.000 spots were detected. Recordings were then processed in TrackMate using the ‘Run TrackMate Batch’ plugin provided by the Glyco-PAINT-APP. Through this plugin, spot detection and tracking by TrackMate[70] was performed as indicated in the batch file using the Simple LAP tracker algorithm with a maximum frame gap of 3, a max linking distance of 0.6 μm and a gap closing max distance of 1.2 μm. Tracks with only two spots were discarded. For the parameter sensitivity analysis, each tracking or spot detection was varied as indicated, whilst the others were kept at aforementioned values (Basis scenario).
With the Glyco-PAINT-APP utility ‘Generate Squares’, a grid of squares was overlaid, and kinetic properties for each square were calculated. Default parameters for grid processing are (deviations are mentioned in figure captions): Nr of Squares in row 20, Minimum Tracks to Calculate Tau 20, Min allowable R Squared 0.1, Min Required Density Ratio 2, Maximum Allowable Variability 10 and Neighbour Mode Free.
For every recording, a background track count was calculated by averaging the track count of the 40 (10% of the total number of squares) least dense squares. Only squares for which the track count exceeded the Min Required Density Ratio of 2 were considered (and the remaining ignored as background). For each square, the variability was calculated and only squares for which the variability was less than the Maximum Allowable Variability of 10 were considered. For squares meeting both the Minimum Required Density Ratio and Maximum Allowable Variability criteria, and containing at least the Minimum Tracks to Calculate Tau kinetic parameters, including kon, koff and MSD were calculated as in Riera et al.[10], or copied from the TrackMate Tracks table output (for velocity, displacement, and track duration).

Substance | koff−1 (CHO-MR + CytD) | kon (CHO-MR + CytD) | koff−1 (CHO-MR) | kon (CHO-MR)
Ac-Lys(Man)-Gly-Lys(Man)-TEG-Asp-Glu-Val-Ser-Gly-Leu-Glu-Gln-Leu-Glu-Ser-Ile-Ile-Asn-Phe-Glu-Lys-Leu-Ala-Ala-Ala-Ala-Ala-Lys(sCy5)-NH2 ({Ac-K(Man)-Gly-K(Man)-TEG}-DEVSGLEQLESIINFEKLAAAAAK(sCy5)-NH2) [2 Mono(2), bivalent monomannosylated OVA SLP with sulfo-Cy5] | 85 ms | 8.2 evts μm−2 sec−1 | 91 ms | 6.2 evts μm−2 sec−1
Ac-Lys(Man)-TEG-Asp-Glu-Val-Ser-Gly-Leu-Glu-Gln-Leu-Glu-Ser-Ile-Ile-Asn-Phe-Glu-Lys-Leu-Ala-Ala-Ala-Ala-Ala-Lys(sCy5)-NH2 ({Ac-K(Man)-TEG}-DEVSGLEQLESIINFEKLAAAAAK(sCy5)-NH2) [1 Mono(1), monovalent monomannosylated OVA SLP with sulfo-Cy5] | 63 ms | 3.9 evts μm−2 sec−1 | 68 ms | 3.8 evts μm−2 sec−1
Ac-Lys(triMan)-Gly-Lys(triMan)-TEG-Asp-Glu-Val-Ser-Gly-Leu-Glu-Gln-Leu-Glu-Ser-Ile-Ile-Asn-Phe-Glu-Lys-Leu-Ala-Ala-Ala-Ala-Ala-Lys(sCy5)-NH2 (DEVSGLEQLESIINFEKLAAAAAK; two Lys(triMan), TEG, sulfo-Cy5, C-amide; printed: Asp-Glu-Val-Ser-Gly-Leu-Glu-Gln-Leu-Glu-Ser-Ile-Ile-Asn-Phe-Glu-Lys-Leu-Ala-Ala-Ala-Ala-Ala-Lys) [2 Tri(5), bivalent trimannosylated OVA SLP with sulfo-Cy5] | 108 ms | 4.6 evts μm−2 sec−1 | 117 ms | 5 evts μm−2 sec−1
Ac-Lys(triMan)-TEG-Asp-Glu-Val-Ser-Gly-Leu-Glu-Gln-Leu-Glu-Ser-Ile-Ile-Asn-Phe-Glu-Lys-Leu-Ala-Ala-Ala-Ala-Ala-Lys(sCy5)-NH2 (DEVSGLEQLESIINFEKLAAAAAK; Ac-Lys(triMan)-TEG, sulfo-Cy5, C-amide; printed: Asp-Glu-Val-Ser-Gly-Leu-Glu-Gln-Leu-Glu-Ser-Ile-Ile-Asn-Phe-Glu-Lys-Leu-Ala-Ala-Ala-Ala-Ala-Lys) [1 Tri(4), monovalent trimannosylated OVA SLP with sulfo-Cy5] | 144 ms | 7.1 evts μm−2 sec−1 | 79 ms | 2.8 evts μm−2 sec−1

Next, values leading:

koff−1 (CHO-MR + CytD) | kon (CHO-MR + CytD) | koff−1 (CHO-MR) | kon (CHO-MR) | Substance
115 ms | 8.9 evts μm−2 sec−1 | 117 ms | 5.2 evts μm−2 sec−1 | Ac-Lys(Man)-Lys(Man)-Lys(Man)-Lys(Man)-Lys(Man)-Lys(Man)-TEG-Asp-Glu-Val-Ser-Gly-Leu-Glu-Gln-Leu-Glu-Ser-Ile-Ile-Asn-Phe-Glu-Lys-Leu-Ala-Ala-Ala-Ala-Ala-Lys(sCy5)-NH2 ({Ac-K(Man)-K(Man)-K(Man)-K(Man)-K(Man)-K(Man)-TEG}-DEVSGLEQLESIINFEKLAAAAAK(sCy5)-NH2) [6 Mono(3), hexavalent monomannosylated OVA SLP with sulfo-Cy5]
85 ms | 4.8 evts μm−2 sec−1 | 101 ms | 6.2 evts μm−2 sec−1 | Ac-Lys(triMan)-Lys(triMan)-Lys(triMan)-Lys(triMan)-Lys(triMan)-Lys(triMan)-TEG-Asp-Glu-Val-Ser-Gly-Leu-Glu-Gln-Leu-Glu-Ser-Ile-Ile-Asn-Phe-Glu-Lys-Leu-Ala-Ala-Ala-Ala-Ala-Lys(sCy5)-NH2 (DEVSGLEQLESIINFEKLAAAAAK; six Lys(triMan), TEG, sulfo-Cy5, C-amide; printed: Asp-Glu-Val-Ser-Gly-Leu-Glu-Gln-Leu-Glu-Ser-Ile-Ile-Asn-Phe-Glu-Lys-Leu-Ala-Ala-Ala-Ala-Ala-Lys) [6 Tri(6), hexavalent trimannosylated OVA SLP with sulfo-Cy5]
